The values below come from PMC3326523 (Cell, 2012).

Where no end group is shown, it is not given here.

B3: BRD3(2), second bromodomain of BRD3 (domain or fragment, human)
chain: GKLSEHLRYCDSILREMLSKKHAAYAWPFYKPVDAEALELHDYHDIIKHPMDLSTVKRKMDGREYPDAQGFAADVRLMFSNCYKYNPPDHEVVAMARKLQDVFEMRFAKMP
notes: BRD3, human, second bromodomain; the crystallised construct may differ; source: E. coli BL21(DE3), purified (Ni-NTA, TEV, SEC)
B4: CREBBP bromodomain (domain or fragment, human)
chain: RKKIFKPEELRQALMPTLEALYRQDPESLPFRQPVDPQLLGIPDYFDIVKNPMDLSTIKRKLDTGQYQEPWQYVDDVWLMFNNAWLYNRKTSRVYKFCSKLAEVFEQEIDPVMQSLG
notes: the crystallised construct may differ; also called CBP; KAT3A; source: E. coli BL21(DE3), purified (Ni-NTA, TEV, SEC)

What all share (conditions): both partners purified
The test “CREBBP bromodomain” deals with B4. Description: ITC; peptide (mM stock) titrated into bromodomain (about 50 μM), by the concentrations in the tables; 10 or 15°C, 50 mM HEPES pH 7.5, 150 mM NaCl; single binding site model. (Isothermal titration calorimetry measures the heat released or taken up as one component is titrated into another.)
In test [1] the target is T1, H4K8 peptide RGKGGKacGLGKGY (human, acetyl-lysine at K8 (residue 6 of the peptide)).
T1 construct: histone H4, human; source: synthetic peptide
The test is described as above.

For test [2], the target named is FALZ bromodomain (human, UniProt Q12830 2914-3037). The test is described as above.
Test [3] addresses T2, H4K12/16/20 peptide GKacGGAKacRHRKacV (human, acetyl-lysine at K12, K16 and K20 (residues 2, 6 and 10 of the peptide)).
T2 construct: histone H4, human; source: synthetic peptide
Description: ITC; as a1; rows with N of about 0.5 or 0.25: two or more bromodomains on one peptide, apparent binding constants, events not deconvoluted.

Test [4] concerns the target T3, H3K14 peptide KSTGGKacAPRKQY (human, acetyl-lysine at K14 (residue 6 of the peptide)).
T3 construct: histone H3, human; source: synthetic peptide
Description: ITC; peptide (mM stock) titrated into bromodomain (about 50 μM), by the concentrations in the tables; 10 or 15°C, 50 mM HEPES pH 7.5, 150 mM NaCl; single binding site model.

Test [5] has as its target T3, H3K14 peptide KSTGGKacAPRKQY. The description is as above. The source holds these as a separate data set.
The target of test [6] is B3. The description is as above.
Another test addresses T4, EP300 bromodomain (human, UniProt Q09472 1040-1161).
T4 construct: the crystallised construct may differ; also called KAT3B; source: E. coli BL21(DE3), purified (Ni-NTA, TEV, SEC)
T4 sequence: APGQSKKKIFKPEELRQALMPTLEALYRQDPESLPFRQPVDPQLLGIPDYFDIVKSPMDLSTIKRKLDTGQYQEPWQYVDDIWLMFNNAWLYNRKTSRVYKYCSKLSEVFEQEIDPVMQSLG
The test is described as above.

Test [7] concerns the target FALZ bromodomain (human, UniProt Q12830 2914-3037). The description is as above. This is another data set of the same source.
Test [8] deals with T5, H3K9 peptide KQTARKacSTGGKY (human, acetyl-lysine at K9 (residue 6 of the peptide)).
T5 construct: histone H3, human; source: synthetic peptide
The description is as above.

B1: H3K56 peptide IRRYQKacSTELLY (peptide)
peptide: IRRYQK(Ac)STELLY
notes: histone H3, human; source: synthetic peptide
The term stoichiometry N denotes a count of units in the complex or per binding partner. As to B1, in the test with CREBBP bromodomain, the Kd came out at 13.8 ± 0.4 µM and the “stoichiometry N” value amounted to 0.97 ± 0.013.

B2: KIAA1240 bromodomain (domain or fragment, human)
chain: MEDQEENTLRELRLFLRDVTKRLATDKRFNIFSKPVDIEEVSDYLEVIKEPMDLSTVITKIDKHNYLTAKDFLKDIDLICSNALEYNPDKDPGDKIIRHRACTLKDTAHAIIAAELDPEFNKLCEEIKEARIKRG
notes: KIAA1240 protein, human, bromodomain; the crystallised construct may differ; also called ATAD2B; source: E. coli BL21(DE3), purified (Ni-NTA, TEV, SEC)
The molecule B2 displayed a Kd in test [1] of 150 ± 6.4 µM.
Turning to RRRRRK(Ac)RRRRRY [poly-R peptide RRRRRKacRRRRRY], in the test with FALZ bromodomain [2], the Kd came to 3.1 ± 0.1 µM and the “stoichiometry N” value came to 1.
B3: the Kd in [3] was 61.3 ± 1.9 µM.
Consider B4, for which, in [4], the Kd was found to be 734 ± 90.6 µM.

B5: PCAF bromodomain (domain or fragment, human)
chain: GKEKSKEPRDPDQLYSTLKSILQQVKSHQSAWPFMEPVKRTEAPGYYEVIRFPMDLKTMSERLKNRYYVSKKLFMADLQRVFTNCKEYNPPESEYYKCANILEKFFFSKIKEAGLID
notes: P300/CBP-associated factor, human, bromodomain; the crystallised construct may differ; also called KAT2B; source: E. coli BL21(DE3), purified (Ni-NTA, TEV, SEC)
In the case of B5, the Kd in test [5] came to 188 ± 14.6 µM.

B6: H2BK85 peptide AHYNKacRSTITSRE (peptide)
peptide: AHYNK(Ac)RSTITSRE
notes: histone H2B, human; source: synthetic peptide
For B6, in the test with CREBBP bromodomain, the Kd is 66.2 ± 3.8 µM and the “stoichiometry N” value was found to be 0.98 ± 0.059.

B7: H3K18 peptide GKAPRKacQLATKY (peptide)
peptide: GKAPRK(Ac)QLATKY
notes: as for B1
For the molecule B7, in [6], the Kd stood at 67.1 ± 4.5 µM and the “stoichiometry N” value was determined as 1.06 ± 0.068.

B8: H3K56 peptide GTVALREIRRYQKacS (peptide)
peptide: GTVALREIRRYQK(Ac)S
notes: as for B1
As to B8, in the test with CREBBP bromodomain, the Kd came to 21.3 ± 1.4 µM and the “stoichiometry N” value is 0.96 ± 0.025. Moreover, in the test with EP300 bromodomain, the Kd came to 13.4 ± 0.5 µM and the “stoichiometry N” value came out at 0.98 ± 0.009.

B9: H4K5 peptide SGRGKacGGKGLY (peptide)
peptide: SGRGK(Ac)GGKGLY
notes: histone H4, human; source: synthetic peptide
As for B9, in the test with FALZ bromodomain [7], the Kd was found to be 175 ± 13.3 µM and the “stoichiometry N” value was 1 ± 0.17.

B10: CECR2 bromodomain (domain or fragment)
chain: not shown
notes: CECR2, human, bromodomain; the crystallised construct may differ; source: E. coli BL21(DE3), purified (Ni-NTA, TEV, SEC)
Turning to B10, the Kd in test [8] stood at 189 ± 11.6 µM; in test [4], 43.9 ± 0.8 µM.

B11: H3K36 peptide ATGGVKacKPHRY (peptide)
peptide: ATGGVK(Ac)KPHRY
notes: histone H3, human; the last Y is Y41 of H3; source: synthetic peptide
Regarding B11, in the test with CREBBP bromodomain, the Kd amounted to 71.4 ± 1 µM and the “stoichiometry N” value was found to be 1. Also, the “stoichiometry N” value in the test with EP300 bromodomain is 1 ± 0.044.

B12: H4K44 peptide RRGGVKacRISGLY (peptide)
peptide: RRGGVK(Ac)RISGLY
notes: as for B9
Take B12: in the test with CREBBP bromodomain, the Kd was found to be 25.3 ± 0.6 µM and the “stoichiometry N” value came out at 1 ± 0.099.

B13: H4K44 peptide GGVKacRISGLI (peptide)
peptide: GGVK(Ac)RISGLI
notes: as for B9
B13: the Kd with CREBBP bromodomain was 82 ± 3.8 µM; with EP300 bromodomain it was 132 ± 6.3 µM. Also, the “stoichiometry N” value with CREBBP bromodomain amounted to 1.06 ± 0.01; with EP300 bromodomain, 0.97 ± 0.088.
